From the nanobody polyreactivity screen of Harvey et al. (2022)

Assay: yeast display, Sf9 membrane polyspecificity reagent, FACS + sequencing; frameworks hold sequencing errors
Summary of the method: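 Nanobodies came from a synthetic yeast display library in Saccharomyces cerevisiae BJ5465, induced with galactose for 36–48 hours and stained for 1 hour at 4 °C with 10% biotinylated, detergent-solubilized Sf9 membrane reagent. Cells were enriched on streptavidin microbeads and then FACS-sorted, with low and high (top ~1%) gates set on anti-HA fluorescence for expression and streptavidin fluorescence for reagent binding. Each polyreactivity label reflects the gate a clone came from. Genes were amplified by colony PCR, sequenced by MiSeq 2 × 250 and filtered by CDR length.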

Row | Sequence | polyreactivity (PSR sort gate)
1 | QVQLVESGGGLVHAGGSLRLSCAASGRISSSYAMGWYRQAPGKERELVAAITSRGGSTYYADSVKGRFTISRDNAKNTVYLQMNSLKPEDTAVYYCAKYQYYRSTDDYWGQGTQVTVSS | low polyreactivity
2 | QVQLVESGGGLVHAGGSLRLSCAASGRTFAQNAMRRYRQAPWKERELVAAIRNGGRTNYADSVKGLFTISRDNAKNTVYLQMNSLKPEDTAVYYCAVKFNNRAKYGYWGQGTQVTVSS | high polyreactivity
3 | QVQLVESGGGLVHAGGSLRLSCAASGRTFAYNAMGWYRQAPGKERELVAAITRSTGNTYYADSVKGRFTISRDNAKNTVYLQMNSLKPEDTAVYYCAAAYAYWRKYDYWGQGTQVTVSS | high polyreactivity
4 | QVQLVESGGGLVHAGGSLRLSCAASGRTFIAYAMGWYRQAPGKERELVADISLRGGSTYYADSVKGRFTISRDNAKNTVYLQMNSLKPEDTAVYYCNTRRLHGWLYGYEYWGQGTQVTVSS | low polyreactivity
5 | QVQLVESGGGLVHAGGSLRLSCAASGRTFSAYAMGWYRQAPGKERELVAAISRSGGRTYYADSVKGRFTISRDNAKNTVYLQMNSLKPEDTAVYYCNALNLPDNQGTYDYWGQGTQVTVSS | high polyreactivity
6 | QVQLVESGGGLVHAGGSLRLSCAASGRTFVLYVMGWYRQAPGKETEFVADINAGGGSTYYADSVKGRFTISRDNAKNTVYLQMNSLKPEDTAVYYCAATRVLGQLFRFGYWGQGTQVSVSS | low polyreactivity
7 | QVQLVESGGGLVHAGGSLRLSCAASGRTFWSYAMGWYRQAPGKERELVAAIRTSDGITYYADSVKGRFTISRDNAKNTVYLQMNSLKPEDTAVYYCAAENWYKYDYWGQGTQVTVSS | low polyreactivity
8 | QVQLVESGGGLVHAGGSLRLSCAASGRTFWTYAMGWYRQAPGKERELVAAISSGGSTYYADSVKGRFTISRDNAKNTVYLQMNSLKPEDTAVYYCATRVYGGYGYWGQGTQVTVSS | high polyreactivity
9 | QVQLVESGGGLVHAGGSLRLSCAASGRTFYANAMGWYRQAPGKERELVAAISSRSGTTHYADSEKGRFTISRDNAKNSVYLQMNSLKPEETAVYYCAVRYYRRRYDYWGQGTQVTVSS | low polyreactivity
10 | QVQLVESGGGLVHAGGSLRLSCAASGRTFYRYGMGWYREARGKERELVAAISNRGGTTYYADSLKGRFTISRDNAKNTVYLQMNSLKPEDTAVYYCAADSVYAEYDSWGQGTQVTVSS | low polyreactivity
11 | QVQLVESGGGLVHAGGSLRLSCAASGSIFEGYAMGWSRQAPGKERELVAAISRSGGSTYYADSVKGRFTISRDNAKNSVYLQINRLTPEATAVYYCAARKAIDYQGRHDHWGQGTQVTVSS | low polyreactivity
12 | QVQLVESGGGLVHAGGSLRLSCAASGSIFGFYTMGWYRQAPGKERELVAAITWSGGRTYYADSVKGRFTISRDNAKNTVYLQMNSLKPEDTAVYYCNRDGRSRWYYASAGYNYWGQGTQVTVSS | high polyreactivity
13 | QVQLVESGGGLVHAGGSLRLSCAASGSIFRRNAMGMSRQAPGKERELVASITSGASTYYADSVKGRFTISRDNAKNTVYIQMNSLKPEDTAVYYCAADIFVTAFASPMDYWGQGTQVTVSS | low polyreactivity
14 | QVQLVESGGGLVHAGGSLRLSCAASGSIFVVYTMGWYIQAPGKERELVADISASGGRTYYADSVKGRFTISSDNAKNTVYLKMNRLKPEDTAVYYCARVWYSSYSSESYSDHDYWGQGTQGTVSS | high polyreactivity
15 | QVQLVESGGGLVHAGGSLRLSCAASGSIFYPYAMGWYRKAPGKERELVAAISRSGGRTYYADSVKGRFTISRDNAKNTVYLQMNSLKPEDTAVYYCNAYYPGNGPRSTSTRYEYWGQGTQVTVSS | high polyreactivity
16 | QVQLVESGGGLVHAGGSLRLSCAASGSILNGYVMGWYRQAPGKERELVGTYYADSVKGRFTISRDNAKNTVYLQMNSLKPEDTAVYYCAADIGDGSEFDYWGLGTQVTVSS | low polyreactivity

Row | Sequence | polyreactivity (PSR sort gate)
17 | QVQLVESGGGLVHAGGSLRLSCAASGSILSSYAMGWYRQAPGKERELVAAINSGGSTNYADSVKGRFTISRDNAKNTVYLQMNSLKAEDTAVYYCNADYSYGTTLDYWGQGTHVTVSS | low polyreactivity
18 | QVQLVESGGGLVHAGGSLRLSCAASGSIYPSYGMGWYRQAPGKERELVARITSGGGTNYADSVKGRFTISRDNAKNTVYLQMNSLKPEDTAVYYCAAQSTTIEDGWYVEYNYWGQGTQVTVSS | high polyreactivity
19 | QVQLVESGGGLVHAGGSLRLSCAASGSIYPYYAMGWYRQAPGKERELVAVISRGGVRTYYADSVKGRFTISRDNAKNTVYLQMNSLKTEDTAVYYCAAGYPYGVDYWGQGTQVTVSS | high polyreactivity
20 | QVQLVESGGGLVHAGGSLRLSCAASGSTFARYAMGWYRPAPGKERELVAVIRSGGSTNYADSVKGRFTISRDNAKNTVYLQMNSLKPEDTAGAADQWTIHRWATYGYWGQGTQVTVSS | low polyreactivity
21 | QVQLVESGGGLVHAGGSLRLSCAASGSTFDVYVMGWYRQAPGKEREMVAAISSGDDTNYADSVKGRFTISRDNAKNTVYLQMNSLKPEDTEVYYCNADYFDYSRPRYDYWGQGTQVTVSS | low polyreactivity
22 | QVQLVESGGGLVHAGGSLRLSCAASGSTFGINAMGWYRQAPGKERELVAAITRGGSTKYADSVKGRFTISRDNAKKTVYLQMNSLKPEDTAVYYCNKRPWHRSSRPFYYWGQGTQVTVSS | high polyreactivity
23 | QVQLVESGGGLVHAGGSLRLSCAASGSTFKGYAMGWYRQAPGKERELVASIRSSSGSTYYADSVKGRFTISRDNAKNTVYLQMNSLKPEDTAVYYCATALWVRYYGQGGYIRRYDYWGQGTHVTVSS | high polyreactivity
24 | QVQLVESGGGLVHAGGSLRLSCAASGSTFLPNAMVWYRQSHGKERELVAAISYRGGGTFYADSVKGRFTISRDNAKNTVYLQMNSLKPEDTAVYYCAADWSWFDNFDYWGQGTQVTVSS | low polyreactivity
25 | QVQLVESGGGLVHAGGSLRLSCAASGSTFYYNAMGWYRQAPGKERELVAAITKSGDDTYYADSEKGRFTISRDNATNTVYLQMNSLKPEDTAVSYCAAYLSWYDYWGQGTQVTVSS | low polyreactivity
26 | QVQLVESGGGLVHAGGSLRLSCAASGSTFYYYAMGWYRQAPGKERELVAAIRGDSTYYADSVKGRFTISRDNAKYTVYLQMYSLKTEDTAFYYCAADWYDTGFWWTYPYDYWGQGTQVTVSS | low polyreactivity
27 | QVQLVESGGGLVHAGGSLRLSCAASGSTVSYYAMGWYRQAPGKERELVAAISTRGSSTYYADSVKGRFTISRDNAKNTVYFQMNSLKPEDTAVYYCAVDQYKYDWFYDYYGYTYGYWGQGTQVTVSS | high polyreactivity
28 | QVQLVESGGGLVHAGGSLRLSCAASGYTFRYYAKGWYRQAPGKERELVAAINSGDITNYADSVKGRFTITRDNAKTTVYLQMNSLKPEDTAVYFCARSTFSLYDYWGQGTQVTVSS | low polyreactivity
29 | QVQLVESGGGLVHAGGSLRLSCAASGYTFTYYVMGWYRQAPGKEREFVAGIRNGGGRMYYADSVKGRFTISRDNAKNTVYFQMNSLKPEDTAVYYCNAGYGTYYSGVYWRGEMDYWGQGTQVTVSS | high polyreactivity
30 | QVQLVESGGGLVHAGGSLRLSCAASRRNFTRNAMGWYRQAPGKERELVAAIRRGGRTNYADSVKGRFTISRDNAKNTVYLQMNSLKPEETAVYYCNKAGWLKWAPRQYYYWGQGTQVTVSS | high polyreactivity
31 | QVQLVESGGGLVHAGGSLRLSCYATGIILDRYTMGWYRQAPATERELVAAISRSGGITYYADSVKGRFTISRDNAKNTVYLQMNSLKQEDTAVYYCAAKYFDHRQTAYEYWGQGTHVTVSS | high polyreactivity
32 | QVQLVESGGGLVHAGGSLRLSFAASGRTFTLNAMGWYRQAPGKEREFVAAISNSGVRTYYADSVKGRFTISRDNAKNTVYLQMNSLTPEDTAVYYCDGTYQVGDSIDDYWGQGTQVTVSS | low polyreactivity
